According to paper PMC3709894, “Characterization of the Interaction between the Cohesin Subunits Rad21 and SA1/2” (PLoS ONE, 2013):

Molecular target: T1, 6xHis-tagged SA2 (1–1051 aa), baculovirus-expressed (human, UniProt Q8N3U4 1-1051)
T1 construct: source: Sf21 insect cells, baculovirus, in cell extract; not shown: 6xHis, N-terminal, kept
T1 sequence (looked up): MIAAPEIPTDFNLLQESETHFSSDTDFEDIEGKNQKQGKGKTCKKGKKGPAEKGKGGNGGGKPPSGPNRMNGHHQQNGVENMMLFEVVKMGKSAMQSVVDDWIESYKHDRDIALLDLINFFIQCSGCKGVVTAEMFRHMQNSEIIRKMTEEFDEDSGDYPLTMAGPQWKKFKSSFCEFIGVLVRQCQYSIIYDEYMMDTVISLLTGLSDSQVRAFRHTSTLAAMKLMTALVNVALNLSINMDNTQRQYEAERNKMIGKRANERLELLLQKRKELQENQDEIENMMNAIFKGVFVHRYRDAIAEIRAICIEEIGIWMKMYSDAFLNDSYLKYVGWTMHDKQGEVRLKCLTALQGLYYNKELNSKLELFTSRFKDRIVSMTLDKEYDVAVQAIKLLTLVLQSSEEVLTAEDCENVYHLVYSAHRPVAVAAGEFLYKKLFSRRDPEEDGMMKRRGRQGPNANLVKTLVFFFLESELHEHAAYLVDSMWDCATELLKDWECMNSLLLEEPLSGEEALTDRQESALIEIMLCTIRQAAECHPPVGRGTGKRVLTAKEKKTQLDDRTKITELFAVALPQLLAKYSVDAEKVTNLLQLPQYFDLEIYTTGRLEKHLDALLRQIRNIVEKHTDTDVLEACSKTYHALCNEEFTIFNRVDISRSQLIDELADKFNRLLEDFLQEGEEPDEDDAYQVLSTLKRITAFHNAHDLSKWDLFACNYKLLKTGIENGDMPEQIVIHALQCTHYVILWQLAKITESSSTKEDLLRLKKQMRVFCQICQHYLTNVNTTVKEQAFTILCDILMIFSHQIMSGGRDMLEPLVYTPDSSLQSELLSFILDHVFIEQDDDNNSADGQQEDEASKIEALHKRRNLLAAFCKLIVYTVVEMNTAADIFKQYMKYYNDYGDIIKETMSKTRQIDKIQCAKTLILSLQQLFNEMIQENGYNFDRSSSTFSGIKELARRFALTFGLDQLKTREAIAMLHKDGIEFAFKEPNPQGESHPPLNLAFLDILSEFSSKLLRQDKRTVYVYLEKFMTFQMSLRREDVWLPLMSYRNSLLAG
Assay: SEC; complex co-expressed in Sf21 cells and purified by Ni-NTA and anion exchange, then Superose 6 gel filtration; 25 mM Tris-HCl pH 7.5, 200 mM NaCl, 5% glycerol
Details: both partners purified

B1: Flag-tagged Rad21 (171–450 aa), baculovirus-expressed (domain or fragment, human, UniProt O60216 171-450, looked up)
chain: MREGSAFEDDDMLVSTTTSNLLLESEQSTSNLNEKINHLEYEDQYKDDNFGEGNDGGILDDKLISNNDGGIFDDPPALSEAGVMLPEQPAHDDMDEDDNVSMGGPDSPDSVDPVEPMPTMTDQTTLVPNEEEAFALEPIDITVKETKAKRKRKLIVDSVKELDSKTIRAQLSDYSDIVTTLDLAPPTKKLMMWKETGGVEKLFSLPAQPLWNNRLLKLFTRCLTPLVPEDLRKRRKGGEADNLDEFLKEFENPEVPREDQQQQHQQRDVIDEPIIEEPSR
notes: also called Rad21 middle region; source: Sf21 insect cells, baculovirus, in cell extract
- binding result: binds
